These results are taken from a protein production outcome set (Wang et al. 2014).

A short description of the data set: label from the status in PepcDB records.
With “MTDPSSTLRLRGLLAEIVAAPLTRTVALLALCSAYIQGPLTKIFDFPGAIAEMNHFGLQPAAAFAVFVIIFELTASAMVVTGVLRWVGALALSGFTLLATFIALRFWEMAPGMDRMMATNAFFEHLGLAGAFVIVAAIDLTKGTGK”, the protein production result is reported as “not failed”.

For “GSAASSALKGLIQQFTTITGASESVGKHMLEACNNNLEMAVTMFLDGGG”, the protein production entry was “not failed”.

On to “ALFHKKLTEGVLMRDPKFLWCAQCSFGFIYEREQLEATCPQCHQTFCVRCKRQWEEQHRGRSCEDFQNWKRMN”, for which the protein production result is reported as “not failed”.

In the case of “MTETIPVFDGHNDFLLRLLRNPANRETIWLKGDGTGHLDLPRMKEGGFAGGFFAIYVPSPQAHDAAHFEAMMDAPPFELPLPPMIRAEQAQPVALAMAGHLLWMERAARGRFKVCRTAAEVRSCHADGIVSGIMHMEGAEAIGADLDALHLFHSLGLRSLGPVWSRPTVFGHGVPFRFPGSPDTGEGLTEAGRRLVAECNRLKIMLDLSHLNEKGFDDVARLSDAPLVATHSNAHAVTPSTRNLTDRQLAMIRESRGMVGLNFATSFLREDGRRSAEMGWEPVLRHLDHLIDRLGEDHVGMGSDFDGATIPQGIADVTGLPALQAAMRAHGYDEPLMRKLCHENWYGLLERSWG”, the protein production entry is given as “not failed”.

For “MAAADAEAVPARGEPQQDCCVKTELLGEETPMAADEGSAEKQAGEAHMAADGETNGSCENSDASSHANAAKHTQDSARVNPQDGTNTLTRIAENGVSERDSEAAKQNHVTADDFVQTSVIGSNGYILNKPALQAQPLRTTSTLASSLPGHAAKTLPGGAGKGRTPSAFPQTPAAPPATLGEGSADTEDRKLPAPGADVKVHRARKTMPKSVVGLHAASKDPREVREARDHKEPKEEINKNISDFGRQQLLPPFPSLHQSLPQNQCYMATTKSQTACLPFVLAAAVSRKKKRRMGTYSLVPKKKTKVLKQRTVIEMFKSITHSTVGSKGEKDLGASSLHVNGESLEMDSDEDDSEELEEDDGHGAEQAAAFPTEDSRTSKESMSEADRAQKMDGESEEEQESVDTGEEEEGGDESDLSSESSIKKKFLKRKGKTDSPWIKPARKRRRRSRKKPSGALGSESYKSSAGSAEQTAPGDSTGYMEVSLDSLDLRVKGILSSQAEGLANGPDVLETDGLQEVPLCSCRMETPKSREITTLANNQCMATESVDHELGRCTNSVVKYELMRPSNKAPLLVLCEDHRGRMVKHQCCPGCGYFCTAGNFMECQPESSISHRFHKDCASRVNNASYCPHCGEESSKAKEVTIAKADTTSTVTPVPGQEKGSALEGRADTTTGSAAGPPLSEDDKLQGAASHVPEGFDPTGPAGLGRPTPGLSQGPGKETLESALIALDSEKPKKLRFHPKQLYFSARQGELQKVLLMLVDGIDPNFKMEHQNKRSPLHAAAEAGHVDICHMLVQAGANIDTCSEDQRTPLMEAAENNHLEAVKYLIKAGALVDPKDAEGSTCLHLAAKKGHYEVVQYLLSNGQMDVNCQDDGGWTPMIWATEYKHVDLVKLLLSKGSDINIRDNEENICLHWAAFSGCVDIAEILLAAKCDLHAVNIHGDSPLHIAARENRYDCVVLFLSRDSDVTLKNKEGETPLQCASLNSQVWSALQMSKALQDSAPDRPSPVERIVSRDIARGYERIPIPCVNAVDSEPCPSNYKYVSQNCVTSPMNIDRNITHLQYCVCIDDCSSSNCMCGQLSMRCWYDKDGRLLPEFNMAEPPLIFECNHACSCWRNCRNRVVQNGLRARLQLYRTRDMGWGVRSLQDIPPGTFVCEYVGELISDSEADVREEDSYLFDLDNKDGEVYCIDARFYGNVSRFINHHCEPNLVPVRVFMAHQDLRFPRIAFFSTRLIEAGEQLGFDYGERFWDIKGKLFSCRCGSPKCRHSSAALAQRQASAAQEAQEDGLPDTSSAAAADPL”, the protein production result is “failed”.

On to “MYSLFQEGRKMKNTAFLITKNHYPKDYRLKKSPDSDSAMGVAKRILAEVMIFRRVPETISLCGTGCQKCASPHLPKIISAVNKNEPVTFILPAFPGKSPNPEKVLGHLPDHAERLSLNFLGTLCQRIKNFYTPGIKIILCSDGRVFSDVVGMNESDVTAYQLELDRLIKEMSLADLSTFNLDYFYKDLHFVQMREELMKSYGQSLDFLKQKIRNGAKPSASPDEQEANRMYSGITRFLFEDAMHAGQTKSRTAIQKESRFKAYEVIRRSNAWSALIAERFPKAVRLSIHPQTCGSKKLGIRLIGNESWMTPWHGVAVESNKGYVLLRRSEAEALGAKLICSSDGRHSHYQLMAEVSYELLEHHHHHH”, for which the protein production result is “not failed”.

“MDELRELLKGEQQGIKILKEVLKKAKEGDEQELARLNQEIVKGEKQGVKVYKEAAEKARNPEKRQVIDKILEDEEKHIEWHKAASKQGNAEQFASLVQQHLQDEQRHVEEIEKKNLEHHHHHH”: the protein production entry was “not failed”.

For “MDAKQLSKRLATVGAFVQPGARVADIGSDHAYLPANLALNHQISYGVAGEVVRGPFENARHEIQKLGLTDRLVARLADGLAAIEPADRIDTVTIAGMGGPLIRHILEQGPTQLAGVQRLVLEPNVGEATVREWLAANQFQIVAERILAEDGHTYEILCADRVDHQVTYTTAEQMFGPFLLAEKSPVFIAKWQRELQRVNAAVAQMQRAKVIPEEQLALAHAKIKLIEGVLTDASK”, the protein production result is recorded as “failed”.

Turning to “MRRCCGDLAASRGGCEPASRNLTRTRLTFAALGRINRPAEHDREDAMTRQEARDHEPRDQDAALSRRTLVRGLALGAAATMAGPALAQTGPAAPPTTITTPPRDFGPNGAPTTYFWDPDIIAVDPSFDDLAQPNTAIKRLYTGVLWAEGPAWSAQGRYLLWSDIPNNRQMRWSEDDGRISVFRSPSNNSNGNSFDFQGRQLSCEHLTRRVTRYEHDGTATVLCDNYNGKKLNSPNDVVAHPDGSYWFTDPPYGGQLYEGEPDAAGGPSNSGGKLNPRIGQPAGFTPGKRELPTNCYRIDPSGRVDLVVTEEQVPDPNGLCFSPDFKKLYVVSTGKGPGDSGPGGKGEIFVFDVGADNKLSNQKRFSDCTIDGVKCGPDGVRCDVNGNVWASSNAGRAVGYSGVTVWSPEGKLLGRIRLPEVCGNICFGGPKRNRLFMAASQSLYAVFTATQGAGPGLEHHHHHH”, the protein production entry is “not failed”.

In the case of “MGHHHHHHSHMSPFLRIGLSNFDCGSCQSCQGEAVNPYCAVLVKEYVESENGQMYIQKKPTMYPPWDSTFDAHINKGRVMQIIVKGKNVDLISETTVELYSLAERCRKNNGKTEIWLELKPQGRMLMNARYFLEMSDTK”, the protein production entry is listed as “not failed”.

Regarding “MEYVYAALILNEADEEINEDNLTDVLDAAGVDVEESRVKALVAALEDVDIEEAVDQAAAAPVPASGGAAAPAEGDADEADEADEEAEEEAADDGGDDDDDEDDEASGEGLGELFGLEHHHHHH”, the protein production result was “not failed”.

With “MDQQYDFGRPMGHERRSKEHDVTMRNRKTLDITGVKQVESFDNEEFLLETEMGFLSIRGRNLHMKNLNVEEGLVSIEGKIFDMVYLEQGQGEKSKGFFGKLFKLEHHHHHH”, the protein production result is recorded as “failed”.

Regarding “DHHAWHRLLDRALSEQHFQLYFQPVVAARDTHLVLHYKVLSRLLDEQGQTIPAGRFLPWLERFGWTSRLDLLMLEQVLRQMASHEDCLALNLSAATLADPHALNRVFEILRQHSDLGPRLTLEIGEEQLPEQAMLEQLTRRLRELGFSLSLQRFGGRFSMIGNLARLGLAYLKIDGSYIRDIDQESDKRLFIEAIQRAAHSIDLPLIAERVETEGELQVIREMGLYGVQGQLFGEPAPWG”, the protein production result is given as “not failed”.

Take “MHIHILGICGTFMGGIAAIARNAGHTVTGCDANVYPPMSDQLRALGIELTEGWDAGQVRLEPDAFVVGNVVTRGNPLMEAILERGLPYTSGPQWLADNVLRDKWVLAVAGTHGKTTTSAMLAWILEDARLHPGFLVGGIPQNFGLSARLTDSPFFVIEADEYDTAFFDKRSKFVHYRPRTAILNNLEFDHADIFPDIQAIETQFHHLVRTIPGNGLIVANGREAALDRVLERGLWTPVERFGSIGGWTAGEADASGSFDVHFNSALQGRVRWELIGEHNRMNALAAIAAARHAGVPAAAAIDALSRFENVKRRMEIRGAVHGITVYDDFAHHPTAITTTVQGLRAKVGNARILAVLEPRSNTMKLGVMKDALPASLAGADEVYCYGANLGWDAAEALAPLGEKARVFDNLDKLVAQLVADGRPGDHVLMMSNGGFGGIHAKLLDALHHHYHEEIVLTPMHRYGGYA”: the protein production entry is “failed”.

For the sequence “MFEGERHMFDVQREELIWGDRKLVLETGKTARQADGSVVATYGETTVLATVVAGKEPKAGIDFLPLTVNYQERAYAAGRIPGGYFKREGRPSEKETLVSRLIDRPIRPLFVEGWRNDTQVVVTVLSHDLENDPDIVAMVAASAALTLSGVPFMGPIGAARVGYLNGGYKLNPLVTEIAESTLDLVVAGTQDAVLMVESEAKELSEDVMLGAVMFGHKHFQPVIEAIIRLAEKAAKEPRDFTPPENADVEAAVLAVAETELREAYKKTVKQERYAAVDAVKAKVVAALCPAEGEQKFSPEKVKAAFKEAQSKVVRWNILDTGSRIDGRDVKTVRSIVSEVGVLPRAHGSSLFTRGETQALVVATLGTGEDEQFIDALEGTYKERFLLHYNFPPYSVGETGRMGSPGRREIGHGKLAWRAIRPVLPPAHEFPYTIRVVSEITESNGSSSMASVCGGSLSLMDAGVPLRRPVAGIAMGLILEGERFAVLSDILGDEDHLGDMDFKVAGSEEGITSLQMDIKIAGITEEIMKIALAQAKDGRAHILGEMSKALTAARPELGEYAPRIETMQIPTDKIRDVIGTGGKIIREIVEKTGAKINIEDTGIVKIASSDGKAIKAAYNWIRSIVAEPEAGTIYDGTIVKIMEFGAFVNFFGAKDGLVHISELAAQRVAKVGDVVKEGQKVKVKFLGADERGKIRLSMKVVDQETGEDLTEKLKAERAERGEPEREERSDRGDRGDRGPRRDRGERRRESSGE”, the protein production result is “failed”.

Regarding “MSHAKGFKKDYYGGTLMALVGLAAVMAGLQYHTGSLSHMGPGFFPVAVGALLAFVGVLIAVSARNDEPKEDKPSGHGHSHAAPDLRGTVCIVLGTLAFLLFGKYGGMIPATFAIVFISALGDRSNSIKQAFLLSIAMCVIAAVVFSWALQLQLPMFTWGA”, the protein production entry was “failed”.

Turning to “METSRVEEWFERGVEALGHDQVYLARSCFEHVARVNQHPAASSYLALCQAKTRGKFSDAIALARESIAREPHNPLLYQNLGRIYQLAGMRMDAVEVLREGVRRGAGEEAVAELNRIGTRKQPPFRRLHRNHPLNKYVGKLLARLRLR”, the protein production result is given as “failed”.

As for “METDPDYSMVLLTENFPPYNMAINGKNFAQEDNIDGIAVDIVREMFKRAGIKYSLTLRFPWDRIYKLALEKPGYGVFVTARLAEREDKFKWVGPIGPDDWVLLAKGDSPITLGSLDEAKKYRIGAYKGDAIAEFLGKNGFEADLEHHHHHH”, the protein production result is given as “failed”.

On to “MCSLEKRDRLFILKLTGDGEHRLNPTLLDSLRSTINQIRSDPSFSQSVLITTSDGKFFSNGYDLALAESNPSLSVVMDAKLRSLVADLISLPMPTIAAVTGHASAAGCILAMSHDYVLMRRDRGFLYMSELDIELIVPAWFMAVIRGKIGSPAARRDVMLTAAKVTADVGVKMGIVDSAYGSAAETVEAAIKLGEEIVQRGGDGHVYGKMRESLLREVLIHTIGEYESGSSVVRSTGSKL”, for which the protein production entry is recorded as “failed”.

Consider “MSTDTSGVGVREIDAGALPTRYARGWHCLGVAKDYLEGKPHGVEAFGTKLVVFADSHGDLKVLDGYCRHMGGDLSEGTVKGDEVACPFHDWRWGGDGRCKLVPYARRTPRMARTRSWTTDVRSGLLFVWHDHEGNPPDPAVRIPEIPEAASDEWTDWRWNRILIEGSNCRDIIDNVTDMAHFFYIHFGLPTYFKNVFEGHIASQYLHNVGRPDVDDLGTSYGEAHLDSEASYFGPSFMINWLHNRYGNYKSESILINCHYPVTQNSFVLQWGVIVEKPKGMSEEMTDKLSRVFTEGVSKGFLQDVEIWKHKTRIDNPLLVEEDGAVYQLRRWYEQFYVDVADIKPEMVERFEIEVDTKRANEFWNAEVEKNLKSREVSDDVPAEQH”, for which the protein production result is “not failed”.

As to “VAVINSAQDAPSEAPTEVGVKVLSSSEISVHWEHVLEKIVESYQIRYWAAHDKEEAANRVQVTSQEYSARLENLLPDTQYFIEVGACNSAGCGPPSDMIEAFTKKA”, the protein production entry was “not failed”.
